Assay results: IntAct's records for PubMed 18387954

B1: Src substrate cortactin (Homo sapiens), Q14247 (parent)
chain: MWKASAGHAVSIAQDDAGADDWETDPDFVNDVSEKEQRWGAKTVQGSGHQEHINIHKLRENVFQEHQTLKEKELETGPKASHGYGGKFGVEQDRMDKSAVGHEYQSKLSKHCSQVDSVRGFGGKFGVQMDRVDQSAVGFEYQGKTEKHASQKDYSSGFGGKYGVQADRVDKSAVGFDYQGKTEKHESQRDYSKGFGGKYGIDKDKVDKSAVGFEYQGKTEKHESQKDYVKGFGGKFGVQTDRQDKCALGWDHQEKLQLHESQKDYKTGFGGKFGVQSERQDSAAVGFDYKEKLAKHESQQDYSKGFGGKYGVQKDRMDKNASTFEDVTQVSSAYQKTVPVEAVTSKTSNIRANFENLAKEKEQEDRRKAEAERAQRMAKERQEQEEARRKLEEQARAKTQTPPVSPAPQPTEERLPSSPVYEDAASFKAELSYRGPVSGTEPEPVYSMEAADYREASSQQGLAYATEAVYESAEAPGHYPAEDSTYDEYENDLGITAVALYDYQAAGDDEISFDPDDIITNIEMIDDGWWRGVCKGRYGLFPANYVELRQ
partner: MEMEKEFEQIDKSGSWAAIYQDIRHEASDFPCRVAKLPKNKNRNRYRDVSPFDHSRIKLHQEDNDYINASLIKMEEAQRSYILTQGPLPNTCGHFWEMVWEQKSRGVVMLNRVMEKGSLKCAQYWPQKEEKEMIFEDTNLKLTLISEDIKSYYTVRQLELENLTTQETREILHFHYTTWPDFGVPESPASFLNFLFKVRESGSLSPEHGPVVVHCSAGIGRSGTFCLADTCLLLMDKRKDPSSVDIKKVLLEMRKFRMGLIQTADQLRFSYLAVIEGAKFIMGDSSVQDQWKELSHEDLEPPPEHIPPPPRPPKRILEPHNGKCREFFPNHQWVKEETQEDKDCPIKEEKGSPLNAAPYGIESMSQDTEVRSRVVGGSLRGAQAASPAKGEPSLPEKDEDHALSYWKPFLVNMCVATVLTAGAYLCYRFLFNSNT

Variants of: B1
Conditions: with ptn1_human PTPN1, P18031

Variant	effect of a mutation on the interaction
Y446F	disrupting interaction
